According to publication PMC8219829:

Target: protective antigen PA63 heptameric pore (PA_(pore)) (Bacillus anthracis)
Test: cryo-EM structure

protective antigen PA63 heptameric pore (PA_(pore)) (natural protein)
stoichiometry N: 7
